In paper PMC12667445, “Targeting RBM10‐Repressed RORB Activity in Liquid Condensates Inhibits Lysosomal Biogenesis and Neuroblastoma Progression via Affecting NF‐κB Signaling” (Advanced Science, 2025):

Molecular target: T1, recombinant full‐length MBP‐tagged RBM10 (human, UniProt P98175 1-930)
T1 construct: RBM10 (variant 1 is the form found in NB cells), full length; Printed domain limits: RRM1 129-209, ZF1 212-242, RRM2 300-384, ZF2 759-784, G patch 858-904; The construct and its expression host are not described in the main text; They may be in the Supporting Information; source: recombinant, purified
T1 sequence (P98175 whole entry, the tested form may be a part): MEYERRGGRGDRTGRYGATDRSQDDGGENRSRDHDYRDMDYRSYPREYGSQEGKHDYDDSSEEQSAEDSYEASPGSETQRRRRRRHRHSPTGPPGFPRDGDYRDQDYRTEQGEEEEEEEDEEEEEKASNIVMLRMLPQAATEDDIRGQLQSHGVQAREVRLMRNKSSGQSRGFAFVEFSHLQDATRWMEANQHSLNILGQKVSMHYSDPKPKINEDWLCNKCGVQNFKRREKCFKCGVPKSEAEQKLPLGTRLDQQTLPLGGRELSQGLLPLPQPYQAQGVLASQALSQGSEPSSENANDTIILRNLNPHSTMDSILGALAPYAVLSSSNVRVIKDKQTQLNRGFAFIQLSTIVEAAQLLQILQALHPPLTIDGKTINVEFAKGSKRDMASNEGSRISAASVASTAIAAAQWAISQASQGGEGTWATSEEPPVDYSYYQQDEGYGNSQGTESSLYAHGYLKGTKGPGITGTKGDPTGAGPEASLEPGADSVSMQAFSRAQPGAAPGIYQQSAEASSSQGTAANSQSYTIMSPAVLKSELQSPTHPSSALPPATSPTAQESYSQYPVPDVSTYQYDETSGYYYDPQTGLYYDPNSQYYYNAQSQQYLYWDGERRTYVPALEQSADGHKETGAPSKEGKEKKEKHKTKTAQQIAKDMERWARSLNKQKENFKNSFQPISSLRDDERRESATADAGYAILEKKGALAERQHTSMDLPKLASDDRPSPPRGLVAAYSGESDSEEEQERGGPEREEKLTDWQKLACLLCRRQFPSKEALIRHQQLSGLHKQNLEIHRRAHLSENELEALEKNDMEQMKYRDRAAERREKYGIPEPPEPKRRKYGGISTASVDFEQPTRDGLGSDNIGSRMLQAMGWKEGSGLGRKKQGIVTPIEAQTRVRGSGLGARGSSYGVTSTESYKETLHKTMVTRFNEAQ
Experiment: co-IP; purified recombinant GST-tagged RORB and MBP-tagged RBM10, full-length or truncated; western blot
Conditions: both partners purified

B1: recombinant full‐length GST‐tagged RORB (natural protein, UniProt Q92753-1 1-459, looked up)
chain: MRAQIEVIPCKICGDKSSGIHYGVITCEGCKGFFRRSQQNNASYSCPRQRNCLIDRTNRNRCQHCRLQKCLALGMSRDAVKFGRMSKKQRDSLYAEVQKHQQRLQEQRQQQSGEAEALARVYSSSISNGLSNLNNETSGTYANGHVIDLPKSEGYYNVDSGQPSPDQSGLDMTGIKQIKQEPIYDLTSVPNLFTYSSFNNGQLAPGITMTEIDRIAQNIIKSHLETCQYTMEELHQLAWQTHTYEEIKAYQSKSREALWQQCAIQITHAIQYVVEFAKRITGFMELCQNDQILLLKSGCLEVVLVRMCRAFNPLNNTVLFEGKYGGMQMFKALGSDDLVNEAFDFAKNLCSLQLTEEEIALFSSAVLISPDRAWLIEPRKVQKLQEKIYFALQHVIQKNHLDDETLAKLIAKIPTITAVCNLHGEKLQVFKQSHPEIVNTLFPPLYKELFNPDCATGCK
notes: The construct and its expression host are not described in the main text; They may be in the Supporting Information; source: recombinant, purified
B1: binds.
